The target of the assay is T1, 15N-labelled recombinant EGFR287-302 peptide with methionine mutated to leucine (human, also: 15N-labelled, oxidized).
T1 construct: cleaved from an SH2 fusion with CNBr; also called 15N-labelled peptide
T1 peptide: CGADSYELEEDGVRKC
The experiment in a line: NMR, 15N HSQC.

Data on one molecule can be found in patent US20140322130A1 (published 2014).

Where no end group is shown, it is not given here.

B1: Fab fragment of mAb806 (Fab, V domains shown)
VH: DVQLQESGPSLVKPSQSLSLTCTVTGYSITSDFAWNWIRQFPGNKLEWMGYISYSGNTRYNPSLKSRISITRDTSKNQFFLQLNSVTIEDTATYYCVTAGRGFPYWGQGTLVTVSA
VL: DILMTQSPSSMSVSLGDTVSITCHSSQDINSNIGWLQQRPGKSFKGLIYHGTNLDDEVPSRFSGSGSGADYSLTISSLESEDFADYYCVQYAQFPWTFGGGTKLEIKR
notes: papain Fab of the intact mAb; also called Fab806
Regarding B1, the binding result is “binds”.
